The results in this text go back to publication PMC8008340 (Cell, 2021).

The target in the experiment is T1, WT RBD (Wuhan SARS-CoV-2 RBD) (Severe acute respiratory syndrome …, UniProt P0DTC2).
T1 construct: also called Wuhan RBD; native RBD
In words: crystal structure. Particulars: both partners purified.

B1: EY6A Fab (Fab, V domains shown)
VH: EVQLVESGGGVVQPGRSLRLSCAASAFTFSSYDMHWVRQAPGKGLEWVAVISYDGSNKYYADSVKGRFTISRDNSKNTLYLQMNSLRAEDTAVYYCAKDGGKLWVYYFDYWGQGTLVTVSS
VL: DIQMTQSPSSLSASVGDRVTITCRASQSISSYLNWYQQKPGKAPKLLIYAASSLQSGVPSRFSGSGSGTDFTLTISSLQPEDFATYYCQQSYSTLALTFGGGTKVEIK
As to B1, the binding result is “binds”.
